Experimental data reported in patent US12246066 (AGENUS, dated 2025).
Positions count from the first letter of the chain named. Names and notes keep the numbering of the source.

B1: AGEN1884.H1.1 (IgG1) (antibody, V domains shown)
VH: EVQLVESGGGLVKPGGSLRLSCAASGFTFSSYSMNWVRQAPGKGLEWVSSISSSSSYIYYADSVKGRFTISRDNAKNSLYLQMNSLRAEDTAVYYCARVGLFGPFDIWGQGTMVTVSS
VL: EIVLTQSPGTLSLSPGERATLSCRASQSVSRYLGWYQQKPGQAPRLLIYGASTRATGIPDRFSGSGSGTDFTLTITRLEPEDFAVYYCQQYGSSPWTFGQGTKVEIK
B2: AGEN1884.H1.3 (IgG1) (antibody, V domains shown)
VH: B1 VH with D62E, F102M
VL: B1 VL
B3: AGEN1884.H2.1 (IgG1) (antibody, V domains shown)
VH: B1 VH with M113L
VL: B1 VL
B4: AGEN1884.H2.2 (IgG1) (antibody, V domains shown)
VH: B1 VH with D62E
VL: B1 VL
B5: AGEN1884.H1.2 (IgG1) (antibody, V domains shown)
VH: B1 VH with F102M, M113L
VL: B1 VL
B6: AGEN1884.H2.3 (IgG1) (antibody, V domains shown)
VH: B1 VH with D62E, F102M, M113L
VL: B1 VL
B7: AGEN1884.H3 (IgG1 L235V/F243L/R292P/Y300L/P396L) (antibody)
heavy: EVQLVESGGGLVKPGGSLRLSCAASGFTFSSYSMNWVRQAPGKGLEWVSSISSSSSYIYYAESVKGRFTISRDNAKNSLYLQMNSLRAEDTAVYYCARVGLFGPFDIWGQGTLVTVSSASTKGPSVFPLAPSSKSTSGGTAALGCLVKDYFPEPVTVSWNSGALTSGVHTFPAVLQSSGLYSLSSVVTVPSSSLGTQTYICNVNHKPSNTKVDKRVEPKSCDKTHTCPPCPAPELVGGPSVFLLPPKPKDTLMISRTPEVTCVVVDVSHEDPEVKFNWYVDGVEVHNAKTKPPEEQYNSTLRVVSVLTVLHQDWLNGKEYKCKVSNKALPAPIEKTISKAKGQPREPQVYTLPPSREEMTKNQVSLTCLVKGFYPSDIAVEWESNGQPENNYKTTPLVLDSDGSFFLYSKLTVDKSRWQQGNVFSCSVMHEALHNHYTQKSLSLSPG
light: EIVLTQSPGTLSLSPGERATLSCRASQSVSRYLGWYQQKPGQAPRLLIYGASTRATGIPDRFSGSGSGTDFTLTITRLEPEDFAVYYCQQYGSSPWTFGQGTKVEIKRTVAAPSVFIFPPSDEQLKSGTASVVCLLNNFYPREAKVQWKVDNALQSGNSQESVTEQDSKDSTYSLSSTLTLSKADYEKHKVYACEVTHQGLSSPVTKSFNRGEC
B8: AGEN1884.H3 (IgG1 S239D/A330L/I332E) (antibody)
heavy: B7 heavy with V236L, S240D, L244F, P293R, L301Y, A331L, I333E, L397P
light: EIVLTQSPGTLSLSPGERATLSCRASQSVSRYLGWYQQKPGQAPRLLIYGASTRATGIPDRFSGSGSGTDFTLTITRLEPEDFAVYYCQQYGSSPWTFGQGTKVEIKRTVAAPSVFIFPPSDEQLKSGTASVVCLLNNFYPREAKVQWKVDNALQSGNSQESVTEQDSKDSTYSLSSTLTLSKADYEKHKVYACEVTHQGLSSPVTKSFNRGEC
notes: Section 7.2.2 prints 'A330E'; also called AGEN1884.H3 (IgG1-S239D/A330E/I332E) as printed in section 7.2.2

What follows are binders tested against T1, human CTLA-4 on Jurkat cells engineered to constitutively express human CTLA-4 (Promega) (human, UniProt P16410 36-223) (assay: flow cytometry, 2 µg/ml antibody on Jurkat cells expressing human CTLA-4).
T1 construct: Bought cell line; also called CTLA-4-expressing cells; cells expressing human CTLA-4
Protocol: Jurkat cells engineered to constitutively express human CTLA-4 (Promega) were used to analyze the binding of anti-CTLA-4 antibodies. Briefly, the cells were stained at 5 ×10^5 cells/well using 2 µg/ml of antibody in a 96-well plate for 30 minutes at 4° C. The cells were washed twice and incubated for 20 minutes at 4° C. with an anti-human IgG secondary antibody (Thermo Scientific, Cat #31529). The cells were washed and suspended in […] of 2% paraformaldehyde (Alfa Aesar, Cat #43368) prepared in PBS. Data were collected with BD FACS Canto II.
B1: binds. B2: binds. B3: binds. B4: binds. B5: binds. B6: binds.

What follows are binders tested against T1, human CTLA-4 on Jurkat cells engineered … (assay: flow cytometry, 5 µg/ml antibody on Jurkat cells expressing human CTLA-4).
Protocol: The binding of anti-CTLA-4 antibodies AGEN1884.H3 (IgG_1 S239D/I332E), AGEN1884.H3 (IgG_1 S239D/A330L/I332E), and AGEN1884.H3 (IgG_1L235V/F243L/R292P/Y300L/P396L) to CTLA-4-expressing cells was characterized similarly as described above. Briefly, Jurkat cells engineered to express human CTLA-4 (Promega) were stained first with 5 μg/ml of an anti-CTLA-4 antibody or an isotype control antibody and then with an anti-human IgG secondary antibody (Thermo Scientific, Cat #31529). The cells were analyzed using BD FACS Canto II.
B7: binds. B8: binds.
